Biological target: TATA box-binding protein (TBP) (UniProt P20226 1-339)
Assay: SPR

Sequence of TATA box-binding protein (TBP) (P20226 whole entry): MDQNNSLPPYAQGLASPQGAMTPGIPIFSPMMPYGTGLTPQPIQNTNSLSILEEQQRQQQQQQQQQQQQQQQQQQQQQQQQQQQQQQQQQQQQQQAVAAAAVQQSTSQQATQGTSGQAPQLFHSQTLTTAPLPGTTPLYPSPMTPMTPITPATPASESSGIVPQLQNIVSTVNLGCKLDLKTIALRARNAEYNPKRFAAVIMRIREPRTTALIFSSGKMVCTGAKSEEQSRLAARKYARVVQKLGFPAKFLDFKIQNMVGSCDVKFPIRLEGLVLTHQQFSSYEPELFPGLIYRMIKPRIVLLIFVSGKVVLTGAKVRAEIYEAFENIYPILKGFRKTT

Kd | Binder
53 ± 12 µM | N-terminal transactivation domain (NTD) of human estrogen receptor alpha, wild type (SNA-M1-Y184) (domain or fragment) SNAMTMTLHTKASGMALLHQIQGNELEPLNRPQLKIPLERPLGEVYLDSSKPAVYNYPEGAAYEFNAAAAANAQVYGQTGLPYGPGSEAAAFGSNGLGGFPPLNSVSPSPLMLLHPPPQLSPFLQPHGQQVPYYLENEPSGYTVREAGPPAFYRPNSDNRRQGGRERLASTNDKGSMAMESAKETRY
3.9 ± 0.4 µM | N-terminal transactivation domain (NTD) of human estrogen receptor alpha, S118D mutant (domain or fragment) SNAMTMTLHTKASGMALLHQIQGNELEPLNRPQLKIPLERPLGEVYLDSSKPAVYNYPEGAAYEFNAAAAANAQVYGQTGLPYGPGSEAAAFGSNGLGGFPPLNSVSPSPLMLLHPPPQLDPFLQPHGQQVPYYLENEPSGYTVREAGPPAFYRPNSDNRRQGGRERLASTNDKGSMAMESAKETRY

From PMC6365180 (Structure (London, England : 1993), 2018)
